Measured values from paper PMC10786891, “Massively parallel profiling of RNA-targeting CRISPR-Cas13d”.

T1: EsCas13d, nuclease-dead (Eubacterium siraeum, UniProt B0MS50, R295A;H300A;R849A;H854A)
T1 sequence: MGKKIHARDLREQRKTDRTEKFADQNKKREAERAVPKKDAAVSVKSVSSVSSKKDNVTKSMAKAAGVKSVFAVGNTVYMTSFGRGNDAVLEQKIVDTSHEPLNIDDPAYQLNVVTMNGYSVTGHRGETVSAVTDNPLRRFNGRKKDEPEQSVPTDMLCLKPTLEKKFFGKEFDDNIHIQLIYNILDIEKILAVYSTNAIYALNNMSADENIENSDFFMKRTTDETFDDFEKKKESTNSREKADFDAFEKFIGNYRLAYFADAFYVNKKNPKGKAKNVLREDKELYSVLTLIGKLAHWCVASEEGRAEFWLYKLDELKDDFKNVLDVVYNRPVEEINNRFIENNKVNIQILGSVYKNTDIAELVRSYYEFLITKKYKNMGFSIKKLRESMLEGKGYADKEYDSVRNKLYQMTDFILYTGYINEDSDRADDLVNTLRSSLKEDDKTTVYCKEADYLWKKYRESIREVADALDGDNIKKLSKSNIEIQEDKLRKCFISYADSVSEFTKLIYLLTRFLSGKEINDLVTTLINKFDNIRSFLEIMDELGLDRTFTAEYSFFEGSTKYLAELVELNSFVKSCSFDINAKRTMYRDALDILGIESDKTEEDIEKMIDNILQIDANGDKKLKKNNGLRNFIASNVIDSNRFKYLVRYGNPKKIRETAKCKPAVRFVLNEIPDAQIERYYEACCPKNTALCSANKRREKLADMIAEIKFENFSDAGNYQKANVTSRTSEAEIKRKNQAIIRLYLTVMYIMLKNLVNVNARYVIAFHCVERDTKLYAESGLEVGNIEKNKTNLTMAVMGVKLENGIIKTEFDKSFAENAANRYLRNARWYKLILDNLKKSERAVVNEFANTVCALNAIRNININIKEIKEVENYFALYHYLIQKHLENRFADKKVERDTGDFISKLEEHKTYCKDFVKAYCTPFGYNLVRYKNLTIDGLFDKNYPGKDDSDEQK

B1: target 1 U8A,U11G (mixed)
RNA 1: CACCCGUGCAAAAAUGCAGGGGUCUAAAACUGAGCGGAUAACCUCUCUAUGG
RNA 2: GGGAAUGGAUCCACAUCUACGAAUUCGUACCAUAGAGAGGGUAACCGCUCACCGAGAUCGGAAGAGCACACGU
B2: target 1 insU 3' of 17,insA 3' of 8 (mixed)
RNA 1: CACCCGUGCAAAAAUGCAGGGGUCUAAAACUGAGCGGAUAACCUCUCUAUGG
RNA 2: GGGAAUGGAUCCACAUCUACGAAUUCGUACCAUAGUAGAGGUUAUACCGCUCACCGAGAUCGGAAGAGCACACGU
B3: target 1 U3C,U8C (mixed)
RNA 1: CACCCGUGCAAAAAUGCAGGGGUCUAAAACUGAGCGGAUAACCUCUCUAUGG
RNA 2: GGGAAUGGAUCCACAUCUACGAAUUCGUACCAUAGAGAGGUUACCCGCCCACCGAGAUCGGAAGAGCACACGU
B4: target 1 complement block 3-13 (mixed)
RNA 1: CACCCGUGCAAAAAUGCAGGGGUCUAAAACUGAGCGGAUAACCUCUCUAUGG
RNA 2: GGGAAUGGAUCCACAUCUACGAAUUCGUACCAUAGAGACCAAUAGGCGACACCGAGAUCGGAAGAGCACACGU
B5: target 1 insA 3' of 13,insA 3' of 10 (mixed)
RNA 1: CACCCGUGCAAAAAUGCAGGGGUCUAAAACUGAGCGGAUAACCUCUCUAUGG
RNA 2: GGGAAUGGAUCCACAUCUACGAAUUCGUACCAUAGAGAGAGUUAAUCCGCUCACCGAGAUCGGAAGAGCACACGU
B6: target 1 insA 3' of 10,insC 3' of 9 (mixed)
RNA 1: CACCCGUGCAAAAAUGCAGGGGUCUAAAACUGAGCGGAUAACCUCUCUAUGG
RNA 2: GGGAAUGGAUCCACAUCUACGAAUUCGUACCAUAGAGAGGUUAACUCCGCUCACCGAGAUCGGAAGAGCACACGU
B7: target 1 insU 3' of 20 (mixed)
RNA 1: CACCCGUGCAAAAAUGCAGGGGUCUAAAACUGAGCGGAUAACCUCUCUAUGG
RNA 2: GGGAAUGGAUCCACAUCUACGAAUUCGUACCAUUAGAGAGGUUAUCCGCUCACCGAGAUCGGAAGAGCACACGU
B8: target 1 C6U,A14C (mixed)
RNA 1: CACCCGUGCAAAAAUGCAGGGGUCUAAAACUGAGCGGAUAACCUCUCUAUGG
RNA 2: GGGAAUGGAUCCACAUCUACGAAUUCGUACCAUAGAGCGGUUAUCUGCUCACCGAGAUCGGAAGAGCACACGU
B9: target 1 C4A,A14C (mixed)
RNA 1: CACCCGUGCAAAAAUGCAGGGGUCUAAAACUGAGCGGAUAACCUCUCUAUGG
RNA 2: GGGAAUGGAUCCACAUCUACGAAUUCGUACCAUAGAGCGGUUAUCCGAUCACCGAGAUCGGAAGAGCACACGU
B10: target 1 G15U,C21U (mixed)
RNA 1: CACCCGUGCAAAAAUGCAGGGGUCUAAAACUGAGCGGAUAACCUCUCUAUGG
RNA 2: GGGAAUGGAUCCACAUCUACGAAUUCGUACUAUAGAUAGGUUAUCCGCUCACCGAGAUCGGAAGAGCACACGU
B11: target 1 insC 3' of 13,insC 3' of 9 (mixed)
RNA 1: CACCCGUGCAAAAAUGCAGGGGUCUAAAACUGAGCGGAUAACCUCUCUAUGG
RNA 2: GGGAAUGGAUCCACAUCUACGAAUUCGUACCAUAGAGAGCGUUACUCCGCUCACCGAGAUCGGAAGAGCACACGU
B12: target 1 U10C,G12A (mixed)
RNA 1: CACCCGUGCAAAAAUGCAGGGGUCUAAAACUGAGCGGAUAACCUCUCUAUGG
RNA 2: GGGAAUGGAUCCACAUCUACGAAUUCGUACCAUAGAGAGAUCAUCCGCUCACCGAGAUCGGAAGAGCACACGU
B13: target 1 C4A,G5C (mixed)
RNA 1: CACCCGUGCAAAAAUGCAGGGGUCUAAAACUGAGCGGAUAACCUCUCUAUGG
RNA 2: GGGAAUGGAUCCACAUCUACGAAUUCGUACCAUAGAGAGGUUAUCCCAUCACCGAGAUCGGAAGAGCACACGU
B14: target 1 insC 3' of 12,insC 3' of 3 (mixed)
RNA 1: CACCCGUGCAAAAAUGCAGGGGUCUAAAACUGAGCGGAUAACCUCUCUAUGG
RNA 2: GGGAAUGGAUCCACAUCUACGAAUUCGUACCAUAGAGAGGCUUAUCCGCUCCACCGAGAUCGGAAGAGCACACGU
B15: target 1 insC 3' of 22,insU 3' of 14 (mixed)
RNA 1: CACCCGUGCAAAAAUGCAGGGGUCUAAAACUGAGCGGAUAACCUCUCUAUGG
RNA 2: GGGAAUGGAUCCACAUCUACGAAUUCGUACCCAUAGAGAUGGUUAUCCGCUCACCGAGAUCGGAAGAGCACACGU
B16: target 1 insC 3' of 9,insG 3' of 7 (mixed)
RNA 1: CACCCGUGCAAAAAUGCAGGGGUCUAAAACUGAGCGGAUAACCUCUCUAUGG
RNA 2: GGGAAUGGAUCCACAUCUACGAAUUCGUACCAUAGAGAGGUUACUCGCGCUCACCGAGAUCGGAAGAGCACACGU
B17: target 1 del3,del5 (mixed)
RNA 1: CACCCGUGCAAAAAUGCAGGGGUCUAAAACUGAGCGGAUAACCUCUCUAUGG
RNA 2: GGGAAUGGAUCCACAUCUACGAAUUCGUACCAUAGAGAGGUUAUCCCCACCGAGAUCGGAAGAGCACACGU
B18: target 1 insU 3' of 14,insA 3' of 5 (mixed)
RNA 1: CACCCGUGCAAAAAUGCAGGGGUCUAAAACUGAGCGGAUAACCUCUCUAUGG
RNA 2: GGGAAUGGAUCCACAUCUACGAAUUCGUACCAUAGAGAUGGUUAUCCGACUCACCGAGAUCGGAAGAGCACACGU
B19: target 1 C2U,U8A (mixed)
RNA 1: CACCCGUGCAAAAAUGCAGGGGUCUAAAACUGAGCGGAUAACCUCUCUAUGG
RNA 2: GGGAAUGGAUCCACAUCUACGAAUUCGUACCAUAGAGAGGUUAACCGCUUACCGAGAUCGGAAGAGCACACGU
B20: target 1 insG 3' of 18,insA 3' of 3 (mixed)
RNA 1: CACCCGUGCAAAAAUGCAGGGGUCUAAAACUGAGCGGAUAACCUCUCUAUGG
RNA 2: GGGAAUGGAUCCACAUCUACGAAUUCGUACCAUAGGAGAGGUUAUCCGCUACACCGAGAUCGGAAGAGCACACGU
B21: target 1 insG 3' of 14,insA 3' of 5 (mixed)
RNA 1: CACCCGUGCAAAAAUGCAGGGGUCUAAAACUGAGCGGAUAACCUCUCUAUGG
RNA 2: GGGAAUGGAUCCACAUCUACGAAUUCGUACCAUAGAGAGGGUUAUCCGACUCACCGAGAUCGGAAGAGCACACGU
B22: target 1 C7U,A20U (mixed)
RNA 1: CACCCGUGCAAAAAUGCAGGGGUCUAAAACUGAGCGGAUAACCUCUCUAUGG
RNA 2: GGGAAUGGAUCCACAUCUACGAAUUCGUACCUUAGAGAGGUUAUUCGCUCACCGAGAUCGGAAGAGCACACGU
B23: target 1 C2A,G5A (mixed)
RNA 1: CACCCGUGCAAAAAUGCAGGGGUCUAAAACUGAGCGGAUAACCUCUCUAUGG
RNA 2: GGGAAUGGAUCCACAUCUACGAAUUCGUACCAUAGAGAGGUUAUCCACUAACCGAGAUCGGAAGAGCACACGU
B24: target 1 del7,del11 (mixed)
RNA 1: CACCCGUGCAAAAAUGCAGGGGUCUAAAACUGAGCGGAUAACCUCUCUAUGG
RNA 2: GGGAAUGGAUCCACAUCUACGAAUUCGUACCAUAGAGAGGUAUCGCUCACCGAGAUCGGAAGAGCACACGU
B25: target 1 insG 3' of 22,insG 3' of 3 (mixed)
RNA 1: CACCCGUGCAAAAAUGCAGGGGUCUAAAACUGAGCGGAUAACCUCUCUAUGG
RNA 2: GGGAAUGGAUCCACAUCUACGAAUUCGUACGCAUAGAGAGGUUAUCCGCUGCACCGAGAUCGGAAGAGCACACGU
B26: target 1 A9G,U11C (mixed)
RNA 1: CACCCGUGCAAAAAUGCAGGGGUCUAAAACUGAGCGGAUAACCUCUCUAUGG
RNA 2: GGGAAUGGAUCCACAUCUACGAAUUCGUACCAUAGAGAGGCUGUCCGCUCACCGAGAUCGGAAGAGCACACGU
B27: target 1 insU 3' of 21,insU 3' of 2 (mixed)
RNA 1: CACCCGUGCAAAAAUGCAGGGGUCUAAAACUGAGCGGAUAACCUCUCUAUGG
RNA 2: GGGAAUGGAUCCACAUCUACGAAUUCGUACCUAUAGAGAGGUUAUCCGCUCUACCGAGAUCGGAAGAGCACACGU
B28: target 1 G13U,A14C (mixed)
RNA 1: CACCCGUGCAAAAAUGCAGGGGUCUAAAACUGAGCGGAUAACCUCUCUAUGG
RNA 2: GGGAAUGGAUCCACAUCUACGAAUUCGUACCAUAGAGCUGUUAUCCGCUCACCGAGAUCGGAAGAGCACACGU

Molecular target: T1, EsCas13d, nuclease-dead
Test: crRNA (strand 1, pre-loaded); Mg2+; 40 mM Tris-HCl pH 7.5, 150 mM NaCl, 6 mM MgCl2, 1 mM DTT, 0.1% Tween-20, 0.2 mg/ml BSA; 25 C; 10 min per concentration, then washed
Conditions: tags: His6-TwinStrep-SUMO cleaved; N-terminal SNAP kept (SNAP-Surface 488); label: 3' end held by stalled T7 RNA polymerase

Binder	Kd [nM]
B1	12.7 ± 0.5
B2	24.6 ± 1.5
B3	13.4 ± 0.6
B4	62 ± 7
B5	4.3 ± 0.5
B6	14.4 ± 0.5
B7	10.6 ± 0.6
B8	20 ± 1
B9	11.9 ± 1.3
B10	6.4 ± 0.5
B11	17.9 ± 1.1
B12	13.8 ± 0.6
B13	20.9 ± 1.7
B14	12.3 ± 2.6
B15	40 ± 10
B16	11.4 ± 0.7
B17	15.8 ± 0.9
B18	28.7 ± 3
B19	21.2 ± 1
B20	49.3 ± 3.1
B21	8.1 ± 0.4
B22	41.2 ± 3.4
B23	31.6 ± 3.2
B24	15.4 ± 0.5
B25	21.5 ± 2.1
B26	12.1 ± 0.5
B27	38 ± 4
B28	10.8 ± 0.7
